# According to article PMC10540217, “Native Semisynthesis of Isopeptide-Linked Substrates for Specificity Analysis of Deubiquitinases and Ubl Proteases” (Journal of the American Chemical Society, 2023):
# B1: USPL1 catalytic domain (enzyme, human, UniProt Q5W0Q7 227-500, looked up)
# chain: VQWKNAYALCWLDCILSALVHSEELKNTVTGLCSKEESIFWRLLTKYNQANTLLYTSQLSGVKDGDCKKLTSEIFAEIETCLNEVRDEIFISLQPQLRCTLGDMESPVFAFPLLLKLETHIEKLFLYSFSWDFECSQCGHQYQNRHMKSLVTFTNVIPEWHPLNAAHFGPCNNCNSKSQIRKMVLEKVSPIFMLHFVEGLPQNDLQHYAFHFEGCLYQITSVIQYRANNHFITWILDADGSWLECDDLKGPCSERHKKFEVPASEIHIVIWERK
# Target: SUMO2-KG-TAMRA (human, UniProt P61956 1-95, C-terminal glycine linked by an isopeptide bond to the lysine side chain of the KG-TAMRA peptide)
# Sequence (P61956 whole entry): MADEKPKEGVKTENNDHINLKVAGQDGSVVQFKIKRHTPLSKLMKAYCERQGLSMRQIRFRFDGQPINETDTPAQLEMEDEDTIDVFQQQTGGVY
# Assay: cell-based or functional assay
binder,measurement,value
B1,"catalytic efficiency in the fluorescence-polarization cleavage assay, SUMO2-KG-TAMRA against SUMO1-KG-TAMRA",~25 fold
